{"source": "patent US20230220399", "key": {"[1]": {"molecular_target": "transferrin (TF) (Homo sapiens) (UniProt P02787)", "sequence (P02787 20-698)": "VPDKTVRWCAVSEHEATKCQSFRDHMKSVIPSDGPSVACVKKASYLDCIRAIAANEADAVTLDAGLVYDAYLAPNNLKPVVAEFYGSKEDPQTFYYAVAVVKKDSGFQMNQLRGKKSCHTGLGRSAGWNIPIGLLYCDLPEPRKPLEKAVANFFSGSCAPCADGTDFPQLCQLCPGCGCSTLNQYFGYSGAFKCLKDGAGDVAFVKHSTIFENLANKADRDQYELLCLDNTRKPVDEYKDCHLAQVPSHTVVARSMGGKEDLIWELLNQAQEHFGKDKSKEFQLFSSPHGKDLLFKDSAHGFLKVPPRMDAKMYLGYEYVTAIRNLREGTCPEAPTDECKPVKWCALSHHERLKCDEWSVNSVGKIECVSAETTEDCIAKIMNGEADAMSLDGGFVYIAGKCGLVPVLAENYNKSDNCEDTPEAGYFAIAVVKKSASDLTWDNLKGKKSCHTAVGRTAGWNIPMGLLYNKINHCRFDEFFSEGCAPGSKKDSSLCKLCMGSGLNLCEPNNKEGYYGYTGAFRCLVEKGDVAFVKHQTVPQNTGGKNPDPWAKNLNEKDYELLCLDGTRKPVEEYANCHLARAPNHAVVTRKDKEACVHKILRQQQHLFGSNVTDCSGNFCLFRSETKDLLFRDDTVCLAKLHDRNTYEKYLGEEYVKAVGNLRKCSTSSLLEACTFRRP", "details": "Nap-dU at n (6) positions; ELISA, SB18, 37 C"}, "[2]": {"test_system": "KRAS G12D G12D, P01116-2", "details": "Nap-dU at n (6) positions; ELISA, SB18, 37 C"}, "[3]": {"molecular_target": "transferrin (TF) (Homo sapiens) (UniProt P02787)", "details": "ELISA, SB18, 37 C"}, "[4]": {"test_system": "KRAS G12D G12D, P01116-2", "details": "ELISA, SB18, 37 C"}, "[5]": {"test_system": "KRAS G12D G12D, P01116-2", "test": "BLI", "details": "Nap-dU at n (6) positions [4,9,13,19,26,27,28,30,39]; SB18, 37 C, immobilised biotin ligand"}, "[6]": {"test_system": "KRAS G12C G12C, P01116-2", "details": "Nap-dU at n (6) positions [4,9,13,19,26,27,28,30,39]; ELISA, SB18, 37 C; text p364 misprints unit/protein"}, "[7]": {"molecular_target": "human serum albumin (HSA) (Homo sapiens) (UniProt P02768)", "details": "ELISA, SB18, 37 C"}, "[8]": {"test_system": "KRAS G12V G12V, P01116-2", "details": "Nap-dU at n (6) positions [28,30,39,40,41,45,46,47,54,57]; ELISA, SB18, 37 C"}, "[9]": {"molecular_target": "CD3 delta/epsilon heterodimer (UniProt P04234+P07766)", "sequence (P04234 22-105, stated change not applied, chain 1 of 2)": "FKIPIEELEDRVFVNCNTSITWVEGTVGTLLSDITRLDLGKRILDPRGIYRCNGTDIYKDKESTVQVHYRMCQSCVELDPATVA", "sequence (P07766 23-126, stated change not applied, chain 2 of 2)": "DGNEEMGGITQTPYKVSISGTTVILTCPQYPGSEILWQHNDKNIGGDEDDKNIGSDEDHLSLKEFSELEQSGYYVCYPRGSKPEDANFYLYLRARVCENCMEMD", "details": "Nap-dU at n (6) positions [Nap-dU at 3,6,11,12,13,14,17,23,24,25,28,37]; ELISA, SB18, 37 C"}, "[10]": {"details": "Nap-dU at n (6) positions [22,28,35,36,37,49]"}, "[11]": {"details": "Nap-dU at n (6) positions [17,23,30,31,32,44]"}, "[12]": {"details": "Nap-dU at n (6) positions [4,9,13,19,26,27,28,30,39]"}, "[13]": {"details": "Nap-dU at n (6) positions [5,10,14,20,27,28,29,31,40]"}, "[14]": {"details": "Nap-dU at n (6) positions [Nap-dU at 2,6,8,9,11,16,17,22,24,27,35]"}}, "note": "Where two headings read alike, the source gives them in different places.", "data": [{"sequence": "CAGGNCGAGCNGNACGCGNGNGNGACCNGAAGAC [TD013]", "values": [{"measurement": "Kd", "setting": "[1]", "result": 0.646, "unit": "µM"}, {"measurement": "Kd", "setting": "[2]", "result": 1.55, "unit": "µM"}]}, {"sequence": "GAGTGACCGTCTGCCTGAAAGTCCGGATGGCAGCTTTACAGGCAGAACTAACG [TD006]", "values": [{"measurement": "Kd", "setting": "[3]; [10]", "result": 0.968, "unit": "µM"}, {"measurement": "Kd", "setting": "[4]; [10]", "result": 0.628, "unit": "µM"}]}, {"sequence": "ACCGTCTGCCTGAAAGTCCGGATGGCAGCTTTACAGGCAGAACTAACG [TD007]", "values": [{"measurement": "Kd", "setting": "[3]; [11]", "result": 0.431, "unit": "µM"}, {"measurement": "Kd", "setting": "[4]; [11]", "result": 2.12, "unit": "µM"}]}, {"sequence": "GACTAGCATAAGTCCGGATGGCAGCTTTATGCCGACCAT [AD005]", "values": [{"measurement": "Kd", "setting": "[5]", "result": 0.0355, "unit": "µM"}, {"measurement": "Kd", "setting": "[6]", "result": 0.0025, "unit": "µM"}, {"measurement": "Kd", "setting": "[7]; [12]", "result": 0.122, "unit": "µM"}, {"measurement": "Kd", "setting": "[4]; [12]", "result": 0.0229, "unit": "µM"}]}, {"sequence": "GAGTGACCGTCTGCCTGAGCAGGAGGATGTGACACAACTTTGCATTTCAAGCCTGATCAGCCACACCACCAGCC [AV001]", "values": [{"measurement": "Kd", "setting": "[8]", "result": 0.058, "unit": "µM"}, {"measurement": "Kd", "setting": "[7]; Nap-dU at n (6) positions [28,30,39,40,41,45,46,47,54,57]", "result": 0.0112, "unit": "µM"}]}, {"sequence": "GGACTAGCATAAGTCCGGATGGCAGCTTTATGCCGACCAT [TD003]", "values": [{"measurement": "Kd", "setting": "[3]; [13]", "result": 0.141, "unit": "µM"}, {"measurement": "Kd", "setting": "[4]; [13]", "result": 2.72, "unit": "µM"}]}, {"sequence": "ATGCCTCTTCTGCAGTTACGGTGTGATCGCCCAATAGCAGCCAC [TD012]", "values": [{"measurement": "Kd", "setting": "[3]; [14]", "result": 0.0149, "unit": "µM"}, {"measurement": "Kd", "setting": "[4]; [14]", "result": 1.31, "unit": "µM"}]}, {"sequence": "GATCCTGCCCTTTTAATCCGACTTTAATGGCCACGCTCAC [AA003]", "values": [{"measurement": "Kd", "setting": "[7]; Nap-dU at n (6) positions [Nap-dU at 3,6,11,12,13,14,17,23,24,25,28,37]", "result": 0.00432, "unit": "µM"}, {"measurement": "Kd", "setting": "[9]", "result": 0.00763, "unit": "µM"}]}]}
